In article PMC12344693, “Human Milk Oligosaccharides Multivalently Presented on Defined Synthetic Neo-Glycoproteins Are Nanomolar Ligands of Tandem-Repeat Galectins” (Biomacromolecules, 2025) one finds Kd and IC50 data, which are given here for ten substances.

Where only a bound is given, the exact number is not on record here.

Assay [1] concerns the target Asialofetuin (UniProt P12763). The assay can be described thus: ELISA; direct ELISA: ASF immobilised on microtiter plates, serial dilution of the galectin in EPBS (PBS with 2 mM EDTA, 50 µL/well); otherwise as the competitive ELISA (anti-His-tag-HRP detection). For orientation: An ELISA detects its analyte on a solid surface through an enzyme-linked reagent.
Assay [2] deals with His-tagged galectin-1 (C2S) (human). The assay is described as follows: ELISA; competitive ELISA: ASF (0.1 µM in PBS) immobilised, serial dilutions of the neo-glycoprotein in EPBS incubated with […] Gal-1 or Gal-3 for 2 h; galectin left on ASF detected with anti-His-tag-HRP.
His-tagged galectin-1 (C2S) (human), sequence (P09382 other isoform, or with tags, fused parts or gaps): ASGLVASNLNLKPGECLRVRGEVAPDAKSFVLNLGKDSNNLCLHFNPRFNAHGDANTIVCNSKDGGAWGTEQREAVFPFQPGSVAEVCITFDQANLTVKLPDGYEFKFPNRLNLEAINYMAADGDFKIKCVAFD
In assay [3] the target is full-length recombinant human galectin-8, N-terminal His-tagged (human) (UniProt O00214). The assay can be described thus: ELISA; competitive: ASF (0.1 μM in PBS) immobilised on microtiter plates; serial dilutions of inhibitor in EPBS (PBS with 2 mM EDTA) incubated 2 h with a constant galectin concentration ([…] Gal-1, Gal-3, Gal-4; 0.5 μM Gal-8, Gal-9); residual galectin on ASF detected with anti-His-tag-HRP.
full-length recombinant human galectin-8, N-terminal His-tagged (human), sequence (O00214 whole entry): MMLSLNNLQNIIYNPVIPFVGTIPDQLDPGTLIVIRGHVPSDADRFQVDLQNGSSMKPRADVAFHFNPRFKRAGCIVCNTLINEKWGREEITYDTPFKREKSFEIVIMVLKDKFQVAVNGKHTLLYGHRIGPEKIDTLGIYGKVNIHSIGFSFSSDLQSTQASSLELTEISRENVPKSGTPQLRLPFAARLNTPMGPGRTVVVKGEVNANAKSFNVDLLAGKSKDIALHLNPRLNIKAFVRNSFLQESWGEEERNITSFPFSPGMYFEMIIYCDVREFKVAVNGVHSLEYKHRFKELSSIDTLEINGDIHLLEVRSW

Asialofetuin, sequence (P12763 19-359): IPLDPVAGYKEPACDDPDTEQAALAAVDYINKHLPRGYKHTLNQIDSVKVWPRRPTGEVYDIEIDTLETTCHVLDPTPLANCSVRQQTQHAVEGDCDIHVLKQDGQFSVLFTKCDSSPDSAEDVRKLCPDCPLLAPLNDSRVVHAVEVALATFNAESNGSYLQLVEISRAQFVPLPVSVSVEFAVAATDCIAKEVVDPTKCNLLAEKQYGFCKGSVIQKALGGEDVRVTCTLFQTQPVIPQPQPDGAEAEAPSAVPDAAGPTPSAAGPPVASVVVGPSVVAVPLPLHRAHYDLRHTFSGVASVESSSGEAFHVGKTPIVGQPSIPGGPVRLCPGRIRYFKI

In general, Kd refers to the free concentration of one partner at which half of the binding sites on the other are occupied at equilibrium, for simple one-to-one binding. Consider Gal-8-AVI-link (natural protein), for which, in assay [1], the Kd came to 320 nM. On the same count and under the same terms, then Gal-9-AVI-link (natural protein), with 180 nM. As usually defined, the IC50 is the concentration at which inhibition is half-maximal. “Neo-glycoprotein NGP1 (Lac-HSA) (from UniProt P02768 25-609)”: in assay [2], the IC50 was > 20 µM. Regarding “Neo-glycoprotein NGP4 (LN1-LN2-HSA) (from UniProt P02768 25-609)”, the IC50 in assay [2] was > 20 µM.

Turning to “Neo-glycoprotein NGP8 (LDN-LN2-HSA) (from UniProt P02768 25-609)”, the IC50 in assay [2] is > 20 µM.

For the substance “neo-glycoprotein NGP1 (Lac-HSA) (from UniProt P02768 25-609)”, in assay [3], the IC50 is > 20000 nM.

For “neo-glycoprotein NGP2 (LN2-HSA) (from UniProt P02768 25-609)”, the IC50 in assay [3] was > 20000 nM.

Take “neo-glycoprotein NGP4 (LN1-LN2-HSA) (from UniProt P02768 25-609)”: the IC50 in assay [3] came to 600 nM. Still for that read-out and setting: then “neo-glycoprotein NGP5 (LN2-Lac-HSA) (from UniProt P02768 25-609)”, with 200 nM; and “neo-glycoprotein NGP7 (LDN-Lac-HSA) (from UniProt P02768 25-609)”, with 400 nM.
